Consider 5 molecules from patent publication US20110230370A1 (CALIFORNIA INSTITUTE OF TECHNOLOGY, published 2011).

Assay [1] has as its target ^MNMATα2f (wild-type full-length MATα2, C-terminally flag-tagged) (S. cerevisiae) (UniProt P0CY08). Description: cell-based or functional assay.
The target of assay [2] is T1, Doa10myc13 (full-length, C-terminally myc13-tagged S. cerevisiae Doa10 E3 Ub ligase) (S. cerevisiae, UniProt P40318 1-1319).
T1 construct: mature; also called mycn-tagged Doa10; Doa10men
T1 sequence (looked up): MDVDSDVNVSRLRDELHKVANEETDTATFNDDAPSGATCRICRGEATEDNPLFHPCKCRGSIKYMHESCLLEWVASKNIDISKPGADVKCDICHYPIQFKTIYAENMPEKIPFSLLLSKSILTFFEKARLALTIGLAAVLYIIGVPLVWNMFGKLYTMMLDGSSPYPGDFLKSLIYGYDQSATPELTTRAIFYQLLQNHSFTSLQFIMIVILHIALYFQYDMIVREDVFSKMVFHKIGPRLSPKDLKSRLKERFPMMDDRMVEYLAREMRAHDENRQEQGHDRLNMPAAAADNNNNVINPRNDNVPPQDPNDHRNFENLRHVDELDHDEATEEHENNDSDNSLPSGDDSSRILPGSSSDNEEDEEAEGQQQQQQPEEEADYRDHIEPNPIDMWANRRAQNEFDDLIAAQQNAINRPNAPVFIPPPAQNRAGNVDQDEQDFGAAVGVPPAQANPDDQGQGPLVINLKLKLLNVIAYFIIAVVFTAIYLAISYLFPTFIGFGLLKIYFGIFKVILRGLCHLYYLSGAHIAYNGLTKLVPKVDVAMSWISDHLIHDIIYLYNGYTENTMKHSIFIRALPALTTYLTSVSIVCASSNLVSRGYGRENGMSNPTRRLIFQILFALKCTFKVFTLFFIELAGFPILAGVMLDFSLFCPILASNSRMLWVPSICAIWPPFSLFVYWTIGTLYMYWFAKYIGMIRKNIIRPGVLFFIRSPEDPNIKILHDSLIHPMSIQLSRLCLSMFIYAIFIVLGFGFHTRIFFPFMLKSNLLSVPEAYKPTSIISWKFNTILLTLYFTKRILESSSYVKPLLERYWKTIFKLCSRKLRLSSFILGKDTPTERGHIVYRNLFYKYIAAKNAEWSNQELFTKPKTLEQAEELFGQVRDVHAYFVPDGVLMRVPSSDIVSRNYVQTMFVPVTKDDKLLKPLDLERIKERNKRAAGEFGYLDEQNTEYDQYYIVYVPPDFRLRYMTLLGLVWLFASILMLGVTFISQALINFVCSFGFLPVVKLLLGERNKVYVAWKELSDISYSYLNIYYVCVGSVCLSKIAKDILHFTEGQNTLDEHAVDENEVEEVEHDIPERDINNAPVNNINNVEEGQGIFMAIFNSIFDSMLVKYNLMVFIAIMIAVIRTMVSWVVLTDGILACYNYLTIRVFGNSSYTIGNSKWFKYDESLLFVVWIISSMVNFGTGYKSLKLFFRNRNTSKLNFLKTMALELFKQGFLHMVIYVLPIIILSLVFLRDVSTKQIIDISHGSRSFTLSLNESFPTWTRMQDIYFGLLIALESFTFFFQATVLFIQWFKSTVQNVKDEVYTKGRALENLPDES
Description: X-peptide pulldown from yeast extract, anti-myc immunoblot. For orientation: In western blotting, separated proteins are transferred to a membrane and probed.

As to “Doa10 E3 Ub ligase (endogenous, S. cerevisiae) (from UniProt P40318 1-1319) (enzyme)”, in assay [1], the in vivo half-life of ^MNMATα2f, ^35S-pulse-chase, doa10Δ ubc4Δ cells (Doa10 absent) is 35 min and the in vivo half-life of ^MNMATα2f, ^35S-pulse-chase, ubc4Δ cells (Doa10 present) came out at 9 min. “Doa10 E3 Ub ligase (endogenous, S. cerevisiae) (from UniProt P40318 1-1319)” had a level of MATα2f at 0 min (end of pulse) in wild-type cells relative to doa10Δ cells (100%), Ub-reference ^35S-pulse-chase in assay [1] of 55%.

B1: synthetic peptide XIFSTDTGPGGC with X=Phe (peptide)
peptide: FIFSTDTGPGGC
notes: also called nsP4-derived control peptide (X=Phe)
In the case of B1, in assay [2], the binding result is reported as “no binding”.

B2: synthetic peptide XIFSTDTGPGGC with X=Met (peptide)
peptide: MIFSTDTGPGGC
notes: also called nsP4-derived control peptide (X=Met)
As to B2, in assay [2], the binding result is given as “no binding”.

B3: synthetic peptide XIFSTDTGPGGC with X=Arg (peptide)
peptide: RIFSTDTGPGGC
notes: also called nsP4-derived control peptide (X=Arg)
B3: the binding result in assay [2] was “no binding”.
